# Results from publication PMC2746561.
# Legend:
# [1] = biological target: microtubules (polymerized tubulin) (UniProt Q6B856); test: co-sedimentation
# [2] = biological target: full Ska1 complex (Rama1/Ska1/Ska2) (human) (UniProt Q96BD8); test: SEC + other: sucrose gradient sedimentation
# Chain of full Ska1 complex (Rama1/Ska1/Ska2) (Q96BD8 whole entry): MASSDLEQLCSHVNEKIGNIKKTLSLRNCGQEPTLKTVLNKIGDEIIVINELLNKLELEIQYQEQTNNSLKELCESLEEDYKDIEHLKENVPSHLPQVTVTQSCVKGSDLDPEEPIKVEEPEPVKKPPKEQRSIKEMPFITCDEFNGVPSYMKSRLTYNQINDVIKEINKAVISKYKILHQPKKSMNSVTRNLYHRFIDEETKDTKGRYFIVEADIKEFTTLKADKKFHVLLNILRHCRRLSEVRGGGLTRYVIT
# Chain of full Ska1 complex (Rama1/Ska1/Ska2) (Q8WVK7 whole entry): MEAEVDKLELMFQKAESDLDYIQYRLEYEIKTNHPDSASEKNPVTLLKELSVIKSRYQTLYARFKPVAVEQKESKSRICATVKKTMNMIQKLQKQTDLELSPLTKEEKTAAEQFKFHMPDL
# Chain of full Ska1 complex (Rama1/Ska1/Ska2) (Q8IX90 whole entry): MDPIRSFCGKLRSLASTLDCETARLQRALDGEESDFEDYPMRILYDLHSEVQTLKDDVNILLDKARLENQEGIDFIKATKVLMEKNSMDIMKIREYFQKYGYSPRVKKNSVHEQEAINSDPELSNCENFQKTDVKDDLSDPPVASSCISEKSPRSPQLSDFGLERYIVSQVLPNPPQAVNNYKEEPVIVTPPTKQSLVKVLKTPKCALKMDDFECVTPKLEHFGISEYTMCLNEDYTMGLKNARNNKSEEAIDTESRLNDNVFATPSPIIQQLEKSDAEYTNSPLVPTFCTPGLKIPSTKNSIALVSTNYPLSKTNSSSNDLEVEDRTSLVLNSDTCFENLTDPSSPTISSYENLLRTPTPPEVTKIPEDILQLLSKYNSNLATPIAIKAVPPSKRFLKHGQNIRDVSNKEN
substance,measurement,setting,value
full Ska1 complex (Rama1/Ska1/Ska2) (from UniProt Q96BD8 1-255; Q8WVK7 1-121; Q8IX90 1-412),stoichiometry N (per tubulin dimer),[1],1
same,stoichiometry N,[2],2
